Experimental data reported in the supplement of paper PMC9732359.
± gives the uncertainty stated by the source.

Assay: protein stability index of a GFP-peptide fusion (yeast GPS) (PSI 1-4); higher = more stable; sorted into four equal gates, so the index is relative within each strain
Details: san1∆
Summary of the method: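 Each library plasmid carries Cherry plus GFP with a tiled 17-residue yeast protein peptide fused downstream, and the pooled library was carried in yeast. Mid-log cultures in leucine-free medium were sorted into four equal gates by GFP/Cherry ratio. Reads from Illumina sequencing of PCR-amplified plasmids from each gate were assigned to strains by barcodes. Per peptide, the protein stability index was computed as the summed products of gate read frequency and gate number.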
In the case of RQPVEGRSRDGGLRFGE [RPB2], the protein stability index is reported as 2.81 ± 0.17.

Same assay, conditions: ubr1∆
Work on QRRGPLVVYAEDNGIVK [RPL4A] yielded a protein stability index of 2.68 ± 0.11.
In the case of QRRYVIKEKVQFNATIN [ITC1], the protein stability index is reported as 1.68 ± 0.024.
For QRTTTGARVFGALKGAS [RPL5], the protein stability index was 3.05 ± 0.16.
QSAIRPAGQATQKRTHV [RPL4A] showed a protein stability index of 2.5 ± 0.074.
QSALSQIIRLFYSKNRL [ISW2] showed a protein stability index of 2.61 ± 0.053.
In the case of QSDLEIITQYVFESLEI [ARP9], the protein stability index is reported as 3.01 ± 0.08.
Sequence QSDSAKVEIKKVNSRDD [PRP28] has a protein stability index of 2.9 ± 0.12.
With QSLLSLYFEIIHGVLKN [FAS2] the protein stability index was 1.51 ± 0.045.
Sequence QSLNEMVKLIVMLCTLT [YJL039C/NUP192] has a protein stability index of 2.27 ± 0.058.
Sequence QSRLFINELVLENFKSY [SMC4] has a protein stability index of 2.27 ± 0.042.
QSSAIGALQESVEAYLV [HHT1] gave a protein stability index of 2.15 ± 0.079.
With QSTNLNRSAKNSKNDSA [YCS4] the protein stability index was 2.79 ± 0.046.
In the case of QSTPVLLNHGERAELET [RPN1], the protein stability index is reported as 2.66 ± 0.078.
For QTIMKMGPLSNIAQMIP [SRP54], the protein stability index was 2.99 ± 0.07.
In the case of QTKDSVKEIVLPLFYDL [IRR1], the protein stability index is reported as 2 ± 0.035.
Work on QTKRWPTMYTRLCICSG [SIN4] yielded a protein stability index of 1.58 ± 0.03.
Work on QTLKGVGVENNGQYAAF [RPC37] yielded a protein stability index of 2.94 ± 0.2.
Work on QTLSEKEYQCSAVIIDE [YIL149C/MLP2] yielded a protein stability index of 2.88 ± 0.054.
For QTMQLIKNVQDLLILTR [SRB6], the protein stability index was 2.09 ± 0.086.
With QVASIIESFVELGVSIY [NUT2] the protein stability index was 1.76 ± 0.045.
For QVATKYASLKLPNQIPG [YMR129W/POM152], the protein stability index was 1.84 ± 0.029.
Work on QVEKLGKKMEARGQSIW [RPN9] yielded a protein stability index of 1.18 ± 0.22.
Sequence QVKKPRKQRVKKKTKKE [SWI1] has a protein stability index of 3.38 ± 0.1.
Work on QVPDSLDDQIFVCEKSI [RPN6] yielded a protein stability index of 2.92 ± 0.13.
With QVRRDIPSAAFNFFEPI [YMR129W/POM152] the protein stability index was 2.15 ± 0.031.
QVSINSNKILVYESEME [YIL149C/MLP2] gave a protein stability index of 2.92 ± 0.16.
For QVVTTVASQSPHATATE [SNF6], the protein stability index was 2.79 ± 0.047.
For QVVVDAITNTGPREDTT [RPS5], the protein stability index was 2.73 ± 0.042.
QWLNNALKRSYGIFGEG [POP8] gave a protein stability index of 3.15 ± 0.071.
Work on QYATVSKTHKTVSRAYG [RPL34A] yielded a protein stability index of 2.34 ± 0.06.
With RAASIRARVKAFPKDDR [RPL3] the protein stability index was 1.5 ± 0.039.
In the case of RADTDLAMNDDDFLSKK [SNF2], the protein stability index is reported as 3.42 ± 0.067.
RAGVTHVLSRLSYISAL [RET1] gave a protein stability index of 1.23 ± 0.081.
Work on RAINKVLCTRLRLSNFF [SIR2] yielded a protein stability index of 1.08 ± 0.034.
For RAQVLSLGDGTNYYLTT [CSL4], the protein stability index was 3.08 ± 0.072.
With RARKDRMRVSVLEKYEV [SSN3] the protein stability index was 1.97 ± 0.039.
Sequence RATTYEKLTMVFQDNVY [SIN4] has a protein stability index of 2.53 ± 0.057.
Sequence RDDALVVETITSLLNKV [RRP42] has a protein stability index of 3.06 ± 0.045.
RDEMSKAELPQWYTLQS [MED8] showed a protein stability index of 3.01 ± 0.043.
With RDVMCTDGVIGSRTTTN [RPO31] the protein stability index was 3.16 ± 0.052.
RDYQRINKNSKIALREY [POP4] gave a protein stability index of 2.73 ± 0.063.
REAYIENFAKGEHISAI [SWP82] gave a protein stability index of 3.07 ± 0.067.
Sequence REIDALKKQLHVSHEAM [YIL149C/MLP2] has a protein stability index of 2.82 ± 0.049.
Work on REISNFSKGDADVLVDR [SRP72] yielded a protein stability index of 3.06 ± 0.079.
Work on REKALNEEAEARRLKNR [RPL19A] yielded a protein stability index of 3.24 ± 0.066.
RELILAKKQNYKLTNDE [YCG1] gave a protein stability index of 3.29 ± 0.041.
Sequence RELREVIELPLKNPEIF [RPT4] has a protein stability index of 3.06 ± 0.088.
With REMRRKVYAQLLESYKT [RPN7] the protein stability index was 2.7 ± 0.09.
Sequence RETNDDIWRVAGKFELL [SNF2] has a protein stability index of 2.8 ± 0.066.
With RFELHGDMTNSDAQSNL [REC8] the protein stability index was 3.22 ± 0.095.
Work on RFFWKRSTNKKSKILRK [UBP6] yielded a protein stability index of 1.28 ± 0.16.
With RFRKLTSQEINDRLEAL [PRE8] the protein stability index was 2.91 ± 0.11.
With RFTPGSFTNYITRSFKE [RPS0A] the protein stability index was 3.07 ± 0.11.
Work on RGPYLVIVPLSTLSNWS [SNF2] yielded a protein stability index of 2.41 ± 0.035.
For RGRSVMKESVVEINSSE [ESC2], the protein stability index was 2.98 ± 0.1.
In the case of RGTLTKNLKHIDVTFTK [RPL9A], the protein stability index is reported as 2.72 ± 0.065.
In the case of RGYWGTNLGQPHSLATK [RPS2], the protein stability index is reported as 2.85 ± 0.093.
RHGFNRSNTGALMRCSF [RPO21] gave a protein stability index of 2.88 ± 0.079.
RHLRRTGKVSEFISIYS [RET1] showed a protein stability index of 1.37 ± 0.14.
Work on RIENPEKYAAAAPAATS [RPP0] yielded a protein stability index of 3.16 ± 0.057.
With RILKLGTQLATLKNRGL [YGR119C/NUP57] the protein stability index was 2.84 ± 0.046.
In the case of RIRKLTGQNFLTSNISS [REC8], the protein stability index is reported as 1.53 ± 0.053.
In the case of RKKTPAGDWKYDRQLSS [FAS2], the protein stability index is reported as 1.32 ± 0.079.
In the case of RKNDNANDHDESIDVDM [SMC3], the protein stability index is reported as 3.19 ± 0.094.
Work on RKNRYVILQSDLEEAYA [RPT3] yielded a protein stability index of 2.11 ± 0.11.
RKSAPVDSWDREFLKVD [SKP1] showed a protein stability index of 3.19 ± 0.078.
RKTWKRQNTLSLWRYRK [RPL15A] showed a protein stability index of 3.36 ± 0.046.
For RKVEKEKNEKEREIKRR [UBP6], the protein stability index was 3.17 ± 0.068.
Sequence RKWMEEKADYERELISN [YIL149C/MLP2] has a protein stability index of 3.31 ± 0.063.
Work on RKYDLFQNLELETEQLS [SMC2] yielded a protein stability index of 2.17 ± 0.059.
RKYSFNYSSLPSPYKTT [YAR002W/NUP60] gave a protein stability index of 2.71 ± 0.045.
Work on RLAKSTENEIPNLIEKM [BRR2] yielded a protein stability index of 1.68 ± 0.058.
RLDNLQDIKKAKRVENF [DSN1] showed a protein stability index of 2.56 ± 0.048.
In the case of RLIVDPNIADYITAKNN [PRP8], the protein stability index is reported as 2.08 ± 0.052.
Work on RLKEINGWEKYLHNVEL [ISW2] yielded a protein stability index of 2.94 ± 0.057.
Work on RLKGDIFCVGSGQTFAY [PRE2] yielded a protein stability index of 1.79 ± 0.044.
In the case of RLKVFEGIPPPYDKKKR [RPL16A], the protein stability index is reported as 2.97 ± 0.08.
For RLKYALNGREVKAILMQ [RPS4A], the protein stability index was 1.24 ± 0.05.
RLNENKKIGCYMFANLE [CSN12] showed a protein stability index of 3.27 ± 0.11.
For RMKSITSTSQKIPSASI [SNF5], the protein stability index was 3.08 ± 0.051.
With RMPMDFKGVIVKIVDKD [PRE1] the protein stability index was 2.37 ± 0.056.
Sequence RMSSEEVNSLLLQVNKT [GRR1] has a protein stability index of 2.78 ± 0.16.
In the case of RNAALRAKAEAAEFRYK [SCL1], the protein stability index is reported as 3 ± 0.057.
Work on RNAQAQREAAAEYAQLL [RPS6A] yielded a protein stability index of 3.2 ± 0.12.
Work on RNDKTLELMDSKKTGQF [POP1] yielded a protein stability index of 3.37 ± 0.05.
Work on RNEEILRDIGECENEIK [SMC2] yielded a protein stability index of 3.23 ± 0.11.
In the case of RNFKKANLVNKESDLLE [BRN1], the protein stability index is reported as 1.43 ± 0.053.
Sequence RNFLETVELQVGLKNYD [RPL1A] has a protein stability index of 3.15 ± 0.074.
In the case of RNFSLAIIDKNTGLTFK [PRE4], the protein stability index is reported as 3.18 ± 0.058.
With RNHKHALHGTAKALAAA [RPL29] the protein stability index was 2.647 ± 0.014.
In the case of RNISFSDNNSRIMSRNF [SWI1], the protein stability index is reported as 3.16 ± 0.035.
RNKRAVQLPILKIIYTG [YJL039C/NUP192] showed a protein stability index of 2.02 ± 0.067.
Sequence RNNLPAKTFGASVRIFL [RPL33A] has a protein stability index of 2.68 ± 0.052.
In the case of RNPDIYTREFVEAIRRS [NUT2], the protein stability index is reported as 3.02 ± 0.054.
RNVNWIERLTKRQFNNS [ITC1] gave a protein stability index of 3.41 ± 0.12.
For RNVTIQLENADTGTLDT [RPN2], the protein stability index was 3.2 ± 0.093.
RPKPVSPPCYIIDHIPG [SNF5] showed a protein stability index of 2.25 ± 0.079.
Work on RPSITEAMMLKEEGLQQ [MED1] yielded a protein stability index of 2.94 ± 0.21.
RQFEVKQLQLAMHNSKA [POP1] showed a protein stability index of 1.61 ± 0.038.
Work on RQLANLIPFIVKQVLLS [NUT1] yielded a protein stability index of 1.69 ± 0.033.
Work on RQNRNQEIFDANVQRLK [RPL13A] yielded a protein stability index of 3.4 ± 0.055.
